Reference: US20120192297A1 (TOKYO INSTITUTE OF TECHNOLOGY, published 2012)

Molecular target: Cullin 4A (Cul4A), endogenous in 293T cells (human, UniProt Q13619 1-759, limits assumed)
Experiment: anti-FLAG immunoprecipitation from 293T cells, western blotting for DDB1 and Cul4A

Chain of Cullin 4A (Cul4A), endogenous in 293T cells (Q13619 whole entry): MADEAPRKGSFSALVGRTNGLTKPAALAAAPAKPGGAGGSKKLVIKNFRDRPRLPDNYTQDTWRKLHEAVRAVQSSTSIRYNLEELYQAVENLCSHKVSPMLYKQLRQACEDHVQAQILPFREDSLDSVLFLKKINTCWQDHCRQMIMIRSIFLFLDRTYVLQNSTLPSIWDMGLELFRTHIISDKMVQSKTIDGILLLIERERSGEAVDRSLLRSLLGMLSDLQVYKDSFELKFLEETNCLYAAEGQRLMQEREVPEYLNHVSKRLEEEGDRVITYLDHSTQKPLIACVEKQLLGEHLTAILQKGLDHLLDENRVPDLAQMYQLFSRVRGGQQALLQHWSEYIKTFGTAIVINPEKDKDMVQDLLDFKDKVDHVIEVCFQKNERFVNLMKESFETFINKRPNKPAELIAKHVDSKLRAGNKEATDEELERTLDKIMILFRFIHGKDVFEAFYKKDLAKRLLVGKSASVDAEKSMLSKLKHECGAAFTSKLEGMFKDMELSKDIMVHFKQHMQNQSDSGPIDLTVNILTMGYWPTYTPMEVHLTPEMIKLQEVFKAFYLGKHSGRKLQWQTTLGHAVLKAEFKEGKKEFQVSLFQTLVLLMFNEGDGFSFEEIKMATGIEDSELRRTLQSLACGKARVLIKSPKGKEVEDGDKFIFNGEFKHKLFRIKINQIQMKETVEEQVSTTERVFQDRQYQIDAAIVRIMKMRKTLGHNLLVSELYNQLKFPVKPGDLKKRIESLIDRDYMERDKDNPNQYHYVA

- binding result: no binding
B1: FH-CRBN ΔMid (deletion of amino acids 187 to 260) (other, not shown: small tags and cut ends)
chain: MAGEGDQQDAAHNMGNHLPLLPAESEEEDEMEVEDQDSKEAKKPNIINFDTSLPTSHTYLGADMEEFHGRTLHDDDSCQVIPVLPQVMMILIPGQTLPLQLFHPQEVSMVRNLIQKDRTFAVLAYSNVQEREAQFGTTAEIYAYREEQDFGIEIVKVKAIGRQRFKVLELRTQSDGIQQAKVQILPLREWDENLKDDSLPSNPIDFSYRVAACLPIDDVLRIQLLKIGSAIQRLRCELDIMNKCTSLCCKQCQETEITTKNEIFSLSLCGPMAAYVNPHGYVHETLTVYKACNLNLIGRPSTEHSWFPGYAWTVAQCKICASHIGWKFTATKKDMSPQKFWGLTRSALLPTIPDTEDEISPDKVILCL
